Data on six molecules can be found in paper PMC10397247.

Common to all, as to experiment: two-hybrid library CCmax;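 also: natural log of median RNA to DNA barcode read ratio; higher means stronger binding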
One assay concerns the target T1, 4H3651-AA.
T1 chain: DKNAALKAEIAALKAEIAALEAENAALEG
Particulars: mean of both orientations.

For the next assay, the target named is T2, 4H1446-AA.
T2 chain: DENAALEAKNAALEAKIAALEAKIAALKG
Particulars: mean of both orientations.

The target in a further assay is T3, 4H895-AA.
T3 chain: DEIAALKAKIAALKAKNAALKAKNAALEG
Particulars: mean of both orientations.

The next assay deals with T4, 4H486-AA.
T4 chain: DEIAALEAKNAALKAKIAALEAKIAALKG
Particulars: mean of both orientations.

Another assay concerns the target T5, 4H1142-AA.
T5 chain: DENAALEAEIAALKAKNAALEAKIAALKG

Another assay concerns the target T6, P6-AA-1HGe-R.
T6 chain: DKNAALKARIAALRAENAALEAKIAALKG
Particulars: mean of both orientations.

Another assay concerns the target T7, P5-AA-12HGe-Q.
T7 chain: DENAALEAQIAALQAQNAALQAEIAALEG
Particulars: mean of both orientations.

A further assay concerns the target T8, 4H1985-AA.
T8 chain: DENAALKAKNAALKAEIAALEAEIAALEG
Particulars: mean of both orientations.

Another assay concerns the target T9, 4H2614-AA.
T9 chain: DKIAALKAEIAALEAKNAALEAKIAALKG
Particulars: mean of both orientations.

Another assay addresses T10, 4H3121-AA.
T10 chain: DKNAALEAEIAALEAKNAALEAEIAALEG
Particulars: mean of both orientations.

For another assay, the target named is T11, 4H1854-AA.
T11 chain: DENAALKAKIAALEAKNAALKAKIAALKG
Particulars: mean of both orientations.

A further assay has as its target T12, 4H1809-AA.
T12 chain: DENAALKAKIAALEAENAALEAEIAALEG
Particulars: mean of both orientations.

B1: 4H1257-AA (peptide)
chain: DENAALEAENAALKAKIAALKAEIAALEG
Consider B1, for which the interaction score with 4H3651-AA was -1.01; in the assay with 4H1446-AA it was 0.0702; with 4H895-AA it was -1.61; with 4H486-AA it was 1.54.

B2: 4H1142-AA (peptide)
chain: DENAALEAEIAALKAKNAALEAKIAALKG
The molecule B2 had an interaction score with 4H1142-AA of 0.123.

B3: 4H1401-AA (peptide)
chain: DENAALEAKIAALKAKNAALKAEIAALEG
Molecule B3 yielded an interaction score with P6-AA-1HGe-R of 1.53.

B4: 4H3606-AA (peptide)
chain: DKNAALKAEIAALEAENAALEAKIAALKG
For B4, the interaction score in the assay with P5-AA-12HGe-Q is 1.98.

B5: 4H1350-AA (peptide)
chain: DENAALEAKIAALKAEIAALEAKIAALKG
For B5, the interaction score with 4H1985-AA was 0.316; with 4H2614-AA it was -0.142.

B6: 4H1064-AA (peptide)
chain: DENAALEAEIAALEAKIAALEAKNAALKG
In the case of B6, the interaction score with 4H3121-AA is -1.6; with 4H1854-AA, -1.4; with 4H1809-AA it was -1.44.
